Key:
Assay in all cases: LC/MS glucosylation assay, Lineweaver-Burk
Type in all cases: biochemical, Isatis tinctoria
Conditions in all cases: 2 mM UDP-glucose, 20–200 μM acceptor, 100 mM phosphate pH 8.0, 30°C
[1] = substrate: COc1cc(C[C@@H](CO)[C@H](CO)Cc2ccc(O)c(OC)c2)ccc1O
Source text: (§1) LC/MS glucosylation assay, Lineweaver-Burk on IiUGT71B5a

[2] = substrate: COc1cc(C[C@H]2COC(=O)[C@@H]2Cc2ccc(O)c(OC)c2)ccc1O
Source text: as §1

[3] = substrate: COc1cc(C[C@H]2CO[C@H](c3ccc(O)c(OC)c3)[C@H]2CO)ccc1O
Source text: as §1

[4] = substrate: COc1cc([C@@H]2OC[C@@H]3[C@H]2CO[C@H]3c2ccc(O)c(OC)c2)ccc1O
Source text: as §1

[5] = substrate: Oc1cc2c(cc1[C@H]1OC[C@H]3[C@@H]1CO[C@@H]3c1ccc3c(c1)OCO3)OCO2
Source text: as §1

[6] = substrate: [H][C@@]1(Oc2ccc([C@H]3OC[C@]4([H])[C@@H](c5ccc(O)c(OC)c5)OC[C@]34[H])cc2OC)O[C@H](CO)[C@@H](O)[C@H](O)[C@H]1O
Source text: as §1

[7] = substrate: COc1cc(C[C@H]2COC(=O)[C@@H]2Cc2ccc(O)c(OC)c2)ccc1O; remark: listed apart in the source
Source text: (§2) LC/MS glucosylation assay, Lineweaver-Burk on IiUGT71B5b

[8] = substrate: Oc1cc2c(cc1[C@H]1OC[C@H]3[C@@H]1CO[C@@H]3c1ccc3c(c1)OCO3)OCO2; remark: listed apart in the source
Source text: as §2

B1: IiUGT71B5a (Isatis tinctoria) (protein)
chain: MKIELVFIPSPGIGHLRSTVELAKQLVNGDDRLSITVIIIPRSSGGDATDSAQISSLFAASQDRLRYETISVADEPTADRLPTQLYIKNQKPQVRDAVAKILDPARVDSPPRLAGFVVDMFCTSMIDLADEFGVPTYMVYTSNATFLGITLHLQLMLDEKKYDTSELDESVNELEFPCLTRPYPVECLPYLFISKEWLPFFMDQARSFRKMKGILVNTVAELEPHALELFSGDDDLPRAYPVGPVLHLESGSDNSNDDGKQSEILRWLDDQPAKSVVFLCFGSMGGFNEEQTREIAVALDRSGHRFLWSLRRASPDILKQGPGDYTDLDEVLPEGFLDRTLERGKIIGWAPQAAVLAKPAIGGFVTHCGWNSMLESLWFGVPMVTWPLYAEQKVNAFVMVEELGLAVEIRRSLKGDLMAGGMETVAAEDIERAIRRVMEQDSDVRNRVKEMAEKCHVALTDGGSSQVALRKFIQDVIENVVV
notes: full-length ORF 1,449 bp, 482 aa; pET-32a+ tagged recombinant, E. coli BL21(DE3), Ni-NTA; tag removal not mentioned; gene in tandem cluster Ii4G26670/Ii4G26680/Ii4G26690 (Ii4G26690 = IiUGT71B5c); genome VHIU00000000
Q: Which Km [1] does the source give for B1 here?
A: 168.48 ± 9.18 µM

Q: And the Vmax [1]?
A: 8.34e-05 µmol/min

Q: And the kcat [1]?
A: 0.0961 s⁻¹

Q: What about the kcat/Km [1] of the same protein?
A: 571 M⁻¹ s⁻¹

Q: And the Km [2]?
A: 62.35 ± 1.53 µM

Q: What about the Vmax [2] of the same protein?
A: 3.5e-05 µmol/min

Q: What about the kcat [2] of the same protein?
A: 0.0403 s⁻¹

Q: And the kcat/Km [2]?
A: 646 M⁻¹ s⁻¹

Q: What about the Km [3] of the same protein?
A: 568.29 ± 16.08 µM

Q: And the Vmax [3]?
A: 0.000141 µmol/min

Q: And the kcat [3]?
A: 0.162 s⁻¹

Q: And the kcat/Km [3]?
A: 285 M⁻¹ s⁻¹

Q: And the Km [4]?
A: 67.16 ± 2.00 µM

Q: What about the Vmax [4] of the same protein?
A: 6.12e-05 µmol/min

Q: What about the kcat [4] of the same protein?
A: 0.07 s⁻¹

Q: What about the kcat/Km [4] of the same protein?
A: 1040 M⁻¹ s⁻¹

Q: And the Km [5]?
A: 48.00 ± 0.79 µM

Q: And the Vmax [5]?
A: 0.00049 µmol/min

Q: What about the kcat [5] of the same protein?
A: 0.563 s⁻¹

Q: What about the kcat/Km [5] of the same protein?
A: 11700 M⁻¹ s⁻¹

Q: And the Km [6]?
A: 136.06 ± 6.56 µM

Q: What about the Vmax [6] of the same protein?
A: 0.000111 µmol/min

Q: And the kcat [6]?
A: 0.128 s⁻¹

Q: And the kcat/Km [6]?
A: 939 M⁻¹ s⁻¹

B2: IiUGT71B5b (Isatis tinctoria) (protein)
chain: MKIELVFMPSPGIGHLRSTVQLAKQLVNGDDRLSITVIIIPRSSGGDATDSAQISSLFTASQDRLRYESISVADEPTTNRLPTQHYIASQKPQVRDAVAKLIDPTRVDSPPRLAGFVVDMFCISMIDLADEFGVPTYMVYTSNARFLGITLHLQLMIDEKKYDATELDESVNELEFPCLTRPYPVDCLPHILISKDYLFMDQARSYRKMKGILVNTVAELEPHALELFSGDGDLPRAYPVGPVLHLESRSDHSNDDGKQSEILRWLDEQPAKSVVFLCFGSMGGFNEEQAREIAVALDRSGHRFLWSLRRASPDIMKEGPRDYTNLDEVLPEGFLDRTSERGKIIGWAPQAAVLAKPAIGGFVTHCGWNSMLESLWFGVPTVTWPLYAEQKVNAFEMVEELGLAVEIRRSLKGDLMFGGMETVTAEDIERAIRRVMEQGSDVRNRVKEMAEKCHVALTDGGSSKAALRKFIEDVVENVAA
notes: full-length ORF 1,443 bp, 480 aa; pET-32a+ tagged recombinant, E. coli BL21(DE3), Ni-NTA; tag removal not mentioned; gene in tandem cluster Ii4G26670/Ii4G26680/Ii4G26690 (Ii4G26690 = IiUGT71B5c); genome VHIU00000000
Q: For B2, which Km [7] is on record?
A: 61.34 ± 1.48 µM

Q: What about the Vmax [7] of the same protein?
A: 2.41e-05 µmol/min

Q: And the kcat [7]?
A: 0.0277 s⁻¹

Q: What about the kcat/Km [7] of the same protein?
A: 451 M⁻¹ s⁻¹

Q: What about the Km [8] of the same protein?
A: 135.48 ± 10.90 µM

Q: And the Vmax [8]?
A: 0.000125 µmol/min

Q: And the kcat [8]?
A: 0.143 s⁻¹

Q: What about the kcat/Km [8] of the same protein?
A: 1060 M⁻¹ s⁻¹
